The nanobody polyreactivity screen of Harvey et al. (2022)

Experiment: yeast display, Sf9 membrane polyspecificity reagent, FACS + sequencing; frameworks hold sequencing errors
How it was run: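 A nanobody's polyreactivity label depends on the gate it was sorted from. Yeast display cells were stained with 10% biotinylated, detergent-solubilized Sf9 membrane reagent for 1 hour at 4 °C, enriched on streptavidin microbeads and sorted by FACS. The low and high (top ~1%) gates were set on anti-HA fluorescence for expression and streptavidin fluorescence for reagent binding.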

QVQLVESGGGLVQAGGSLRLSCAASGRTFYFYAMGWSRQSPGKERELVADIRGISGSTYYADSVKGRFTISRDNAKNTVYLQMNSLKPEDTAVYYCAADPYLGRAWRGRGYYWGQGTQVTVSS
polyreactivity (PSR sort gate): high polyreactivity

QVQLVESGGGLVQAGGSLRLSCAASGSIIVVYAMGWSRQAPGKERELVAAISWGIGSTYYADSVKGRFTISRDNAKNTVYLLMNILKPEETAVYYCAAVTDIVLYDYWGQGTQVTVSS
polyreactivity (PSR sort gate): low polyreactivity

QVQLVESGGGLVQAGGSLRLSCAASGSIFDVNAMGWYRQAPGKERELVAAITSSGGSTYYADSVKGRFTISRDNAKNTVYLQMNSLKPEDTAVYYCAAYSLYTMYWGQGTQVTVSS
polyreactivity (PSR sort gate): low polyreactivity

QVQLVESGGGLVQAGGSLRLSCAASGRTFCSYTKAWYRQAPGKERELVAAISSGGSTTYADSVKGRFTISRDNAKNTVYLQLNSLKPEDTAVYYCATRAVWSSWGRRYDPWGQGTQVTVSS
polyreactivity (PSR sort gate): high polyreactivity

QVQLVESGGGLVQAGGSLRLSCAASGRISGLYAMGWYRQAPGKERELVAAITTSADRTYYADSVKGRFTISRDNAKNTVYLQMNSLKPEDTAVYYCAADSSRPRMYYWGQGTQVTVSS
polyreactivity (PSR sort gate): low polyreactivity

QVQLVESGGGLVQAGGSLRLSCAASGFTFHRYAMGWYRQAPGKERELVAAISSRGGSTYYADSVKGRFTISRDNAKNTVYLQMNSLKPEDTAVYYCAARWPHRYYSSYYGYDYWGQGTQVTVSS
polyreactivity (PSR sort gate): high polyreactivity

QVQLVESGGGLVQAGGSLRLSCAASGRTFPYNAMGWYRQATGKERELVATINTSGASTSYADSVKRRFTISRDNEKNTVYLQMNSLKPEVTAVYYCNRDRRYYHRFDYWGQGTQVTVSS
polyreactivity (PSR sort gate): low polyreactivity

QVQLVESGGGLVQARGSLRLSCAASGRIFSYNDMGWYRQAPGTERELVAVISIRGGGTYYADSVKGRFTISRDNAKNTVYFQMNSLKPEDTAVYYCNAEYVTFGEEYGYWGQGTQVTVSS
polyreactivity (PSR sort gate): low polyreactivity

QVQLVESGGGLVQAGGSLRLSCAASGNIFRYYVMGWYRQAPGKEREFVAAITSSGGSTYYADSVKGRFTISRDNAKNTVYLQMNSLKPEDTAVYYCAKDYWDPGWAEYDYWGQGTQVTVSS
polyreactivity (PSR sort gate): low polyreactivity

QVQLVESGGGLVQAGGSLRLTCAASGFIFGSYSMGWYRQAPGKERELVAAITSGGSTYYADSVKGRFTISRDNAKNTVYLQMNSLKPEDTAVYYCAKYHWRLSFSRYPYDYWGQGTQVTVSS
polyreactivity (PSR sort gate): high polyreactivity

QVQLVESGGGLVQAGGSLRLSCAASGLTFAINTMGWYRPAPGTERELVAAITGSGGSTYYADSVKGRFTISRDNAKNTVYLQMNSLKPEDTAVYDCAAELLYVQGYAMDYWGQGTQVTVSS
polyreactivity (PSR sort gate): low polyreactivity

QVQLVESGGGLVQAGGSLRLSCAASGRIFGYYPKGCYRPAPGKERELVAAISSGGNTNYADSVKGRFTISRDNAKKTVYLQMNSLKPEDTAVYYCSAYHFSFGWIRVDYWGQGTQVTVSS
polyreactivity (PSR sort gate): high polyreactivity

QVQLVESCGGLVQAGGILRLSCAASGSTFRYYVMGWYRQAPGKERELVAAITSGGSKYYADSVKGRFTISRDNEQNTVYLQMNSLKPDDTAVYYCNKVYSRTFDYWGQGTQVTVSS
polyreactivity (PSR sort gate): high polyreactivity

QVQRVESGGGLVQAGGTLRLSCAASGFIFGYYAMGWSRQAPGKERELVAAISRSGGRTYYADSVKGRFTISRANAKNTVYLQLNSLKPEDTAVYYCAKSGYQYADDMDYLGQGTQVTVSS
polyreactivity (PSR sort gate): high polyreactivity

QVQLEESGGGLVQAGGSLRLSCAASGSTFPFYAMGWYRQAPGKERELVAAISRGGSTNYADSVKGRFTISRDNAKNTVYLQMNSLKPEDTAVYYCNADVFWWYPYDYWGQGTQVTVSS
polyreactivity (PSR sort gate): high polyreactivity

QVQLVESGGGLVQAGGSLRLSCAASGITFKAYAMGWYRQAPGKDRELVAAINTSGARTYYADSVKGRFTISRDNAKNTVYLQMNSLKPEDTAVYYCNARLHQQEGDYWGQGTQVTVSS
polyreactivity (PSR sort gate): low polyreactivity

QVQHVESGGGLVQAGGSLRLSCAASGRTFRRNVMGWYRQAPGKERELVAAISSGANTNYADSVKGRFTISRDNAKNTVYLQMNSLKPEDTAVYYCNARWQEPLKYDYWGQGTQVTVSS
polyreactivity (PSR sort gate): low polyreactivity

QVQLVESGGGLVQAGGSLRLSCAASGNIIDANAMGWYRQAPGKERELVAAITSSGGSTYYADSVKGRFTISRDNAKNTVYLQMNSLKPEDTAVYYCAKSHAIYYWWDESWGQGTQVTVSS
polyreactivity (PSR sort gate): low polyreactivity

QVQLVESGGGLVQAGGSLRLSCAASGSILRYYAMGWFRQAPGKERELVAAISYSGGSTYYADSVKGRFTISRDNAKNTVYLQMNSLKPEDTAVYYCNKLYDRGYDYWGQGTQVTVSS
polyreactivity (PSR sort gate): high polyreactivity

QVQLVESGGGLVQAGGSLRLSCAASGITFGSKVMGWYRQPPGKEWEFVAVINWSTGSTYYADSVKGRFTISRDNAKNTVYLQMNSLKPEDTAVYYCNTDSGNEWTSYDYWGQGTQVTVSS
polyreactivity (PSR sort gate): low polyreactivity

QVQLVESGGGLVQAGGSLRLSCAASGRIFSWYAMGWYRQAPGKEREMVARITTRGGNTYYADSVKGRFTISRDNAKNTVFLQMNSLKPEDTAVYYCAARHPYPIYDYWGQGTQVTVSS
polyreactivity (PSR sort gate): low polyreactivity

QVQLVESGGGLVQAGGSLRLSCAASGSTFCRNAMGWYRQAPGKEREFVAVISISSGTTYADSVKGRFTISRDNAKNTVYLQMNSVKPVDTAVYYCAAAIGVYYIDYRYLGTVEYWGQGTQVNVSS
polyreactivity (PSR sort gate): low polyreactivity

QVQLVESGGGLVQAGGSLRLSCAASVRIFPIYAMGWYRQAPGKERELVAAIDSGGSTTYADSVKGRFTISRDNAKNTVYLQMNSLKPEDTAVYYCSAKGAYPYWYPVAYRYDYWGQGTQVTVSS
polyreactivity (PSR sort gate): low polyreactivity

QVQLVESGGGLVQAGGSLRLSCAASGFTFVGNTMGWYRQAPGKERELVAAIRGRDGRTYYADSVKGRFTISRDNAKNTVYLQMNSLKPEDTAVFYCNAVGFVWYFDVYSYFTEIKYDYWGQGTQVTVSS
polyreactivity (PSR sort gate): low polyreactivity

QVQLVESGGGLVQAGGSLRLSCAASGSTFGLYAMGWYRQAPGKERELVADITWSGGSTYYADSVKGRFTISRDNAKNTVYLQMNSLKPEDTAVYYCAADGYDQYPLWAPPGDYWGQGTQVTVSS
polyreactivity (PSR sort gate): low polyreactivity

QVQRVESGVGLVQAGGSLRLSCAASGRIFRPYAMGWFRQARGNERELVAAITYSGGSTRYADSVKGRFTLSRDNAKNTVYIQMNSLKPEDTAVYYCAADLSYQDDPRWSYDYWGQGTHVTVSS
polyreactivity (PSR sort gate): high polyreactivity

QVQLVESGGGLVQAGGSLGLSCAASGRTFSYYAMGWYRQAPGKERELVAAISASGGRTYYADSVKGRFTISRDNAKNTDYLQMNSLTPEDTAVYYCAAGSYQRYAFDYWGQGTQVTVSS
polyreactivity (PSR sort gate): high polyreactivity

QVQLVESGGGLVLAGGSLRLSSAASGFTFSPYAMGWYRQAPGKERELVPAISASGGRTYYADSVKGRFTISRDYAKNTVYLQMNSLKPEDTAVYYCAAKLYDSGGRYWYDYWGQGTQVTVSS
polyreactivity (PSR sort gate): high polyreactivity

QVQHVESGGRLVQAGGSLRLSCAASGITFRVYALGWYRQPRGKERELVAAITSSGGSTYYADSVKGRFTISRDNAKNTVYLQMNSLKPEHTAVDYCAAFSAVDSPLDYWGQGTQVTVSS
polyreactivity (PSR sort gate): low polyreactivity

QVQLVESGGGLVQAGGSLRLSCAASGSIFDVNAMGRYRQAPGKERELVAAISDSGGSTYYADSVKGRFTISRDNAKNTVYLQMNSLKPEDTAVYYCNADWSWYNYYDFDYWGQGTQVTVSS
polyreactivity (PSR sort gate): low polyreactivity

QVQLVESGGGLVQAGGSLRLSCAASGSTFISYAMGWYRQAPGKEREWVAAISRRGDSTYYADSVKGRFTISRDNAKNTVYLQMKSLKPEDTAVYYCAADVSGDKGSIHMNYWGQGTQVTVSS
polyreactivity (PSR sort gate): low polyreactivity

QVQLVESGGGLVQAGGSLRLSCAASGIIFGHYAMGWYRQAPGKERELVAAIRSSGGTTYYADSVKGRFTISRDNAKNTVYLQMNSLKPEDTAVYYCAKRGVHLYHDYYWGQGTQVTVSS
polyreactivity (PSR sort gate): low polyreactivity

QVQLVESGGGLVQAAGSLRLSCAASGSIFSANSMGWYRQAPGKERELVAAISGRGTRTYYADSVKGRFTISRDNAKYTVYLQMNSLKPEDTAVYYCNAARDRTSPEYDYWGQGTQVTVSS
polyreactivity (PSR sort gate): high polyreactivity

QVQLVESGVGLVQAGGSLRLSCAASGSISQGNAMGWYRQAPGKERELVAANRWTSGRTYYADSVKGRFTISRDIAKNTVYLQMNSLKPEDTAEYYCAAYYVYYTPTLFDRVYWGQGSQVTVSS
polyreactivity (PSR sort gate): low polyreactivity

QVQLVESGGGLVQAGGSLRLSCAASGRTFTFNTMGWYRQAPGKERELVAAITISDGRTYYADSVKGRFTISRDNAKNTVYLQMNSLKREVTAVYYCAAVQKYGYYWRHNDYWGQGTQVTVSS
polyreactivity (PSR sort gate): low polyreactivity

QVQLQESGGGLVQAGGSLRLSCAASGTILYSLGMGWYRQAPGKRREFVASITWGTTTNYAESVKGRFTISRDNAKNTVYPQMNSLKPEDTAVYDCAAPPFGDSSYHYWGQGTQVTVSS
polyreactivity (PSR sort gate): low polyreactivity

QVQLVESGGGLVQAGGSLRLSCAASGITFGSYAMGWYRQAPGKERELVAAITSGGGTNYADSVKGRFTISRDNAKNTVYLQMNSLKPEDTAVYYCAARYYYLGTRYGYWGQGTQVTVSS
polyreactivity (PSR sort gate): low polyreactivity

QVQLVESGGGLVQAGGSLRLSCAASGFTFVRYAMGWYRQAPGKEREFVASISARGGNTFYADSVKGRFTISRDNAKNTVYLQMNSLKPEDTAVYYCNALTYFKRSEYYWGQGTQVTVSS
polyreactivity (PSR sort gate): high polyreactivity

QVQLVESGGGLVQAGGSLRLSCAASGSIFVGYDMGWYRQAPGKERDLVASINGGDSTNYADSVKGRFTISRDNAKYTVYLQMNSLKPEDTAVYYCAKDVTYTDEYDYWGQGTQVTVSS
polyreactivity (PSR sort gate): low polyreactivity

QVQLVESGGGLVQAGGSLRLSCAASGIIFFFYDMGWYRQSPGKERELVAAISDDGVSTDYADSVKGRFTISRDNAKNTVYLQMNSLKPEDTAVYYCAAKTERVYPWFSFGYWVQGTQVTVSS
polyreactivity (PSR sort gate): low polyreactivity

QVQLVESGGGLVQARGILRLSCAASGNIFGRYAMGWSRQAPGKERELVAAITRSCGRTYYADSVKGRFTISRHHAKNTVYLQRNSLKPEDTAGYYCAAVGGRDVYPVVDRDYWGQGTQLTVSS
polyreactivity (PSR sort gate): low polyreactivity

QVQLVESGGSLVQAGGSLRLSCAASGRIFHNNAMGWYRQAPGKERELVAAISTGGSTNYADSVKGRFTISRDNAKNTVYLQMNSLTPEDTAVYYCAAEHPVTYPTSKFDYWGQGTQVTVSS
polyreactivity (PSR sort gate): low polyreactivity

QVQLVESGGGLVQAGGSLRLSCAASGRTFSAYAMGWYRQAPGKERELVARITSVDSTNYADSVKGRFTISRDNAKNTVYLQMNSLKPEDTAVYYCNATFGYPFVDYDDYWGQGTQVTGSS
polyreactivity (PSR sort gate): low polyreactivity
